How the values were obtained:
[1] = target: T1, human FZD10 expressed on transfected HEK293 cells (human, UniProt Q9ULW2 21-581); assay: flow cytometry, HEK293 cells transiently co-transfected with FZD expression vector and GFP
T1 sequence: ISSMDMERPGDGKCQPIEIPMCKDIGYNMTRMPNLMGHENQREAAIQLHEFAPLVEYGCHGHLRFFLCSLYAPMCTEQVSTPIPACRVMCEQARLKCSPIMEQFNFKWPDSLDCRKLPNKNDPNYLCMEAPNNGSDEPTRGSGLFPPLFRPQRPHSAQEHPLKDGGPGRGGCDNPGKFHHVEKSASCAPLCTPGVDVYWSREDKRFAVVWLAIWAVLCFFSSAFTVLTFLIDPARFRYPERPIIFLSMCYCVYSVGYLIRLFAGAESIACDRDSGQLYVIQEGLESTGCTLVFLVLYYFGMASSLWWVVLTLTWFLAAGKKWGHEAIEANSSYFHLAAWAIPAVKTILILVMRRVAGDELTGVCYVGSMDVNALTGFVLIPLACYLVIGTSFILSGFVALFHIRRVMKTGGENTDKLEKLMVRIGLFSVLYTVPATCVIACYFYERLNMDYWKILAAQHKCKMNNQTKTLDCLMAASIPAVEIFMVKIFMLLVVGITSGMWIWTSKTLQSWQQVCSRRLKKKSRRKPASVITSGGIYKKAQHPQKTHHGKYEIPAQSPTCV
Method: (§1) To measure antibody binding to FZD by flow cytometry HEK293 cells were co-transfected with FZD expression vectors and the transfection marker GFP. Twenty-four to forty-eight hours post-transfection, cells were collected in suspension and incubated on ice with anti-FZD antibodies (10 μg/ml unless otherwise indicated) or control IgG to detect background antibody binding. The cells were washed and primary antibodies detected with Fc domain-specific secondary antibodies conjugated to a fluorescent chromophore (e.g. phycoerythrin conjugated anti-human IgG). Labeled cells were then analyzed by flow cytometry to identify anti-FZD antibodies that specifically recognize cell surface expression of FZD protein. Monoclonal antibodies 18R5 and 18R8 recognized FZD on transfected cells. As shown in FIG. 1 and FIG. 2, both 18R8 and 18R5 bind to multiple FZD including FZD1, FZD2, FZD5, FZD7, and FZD8. To examine the relative ability of 18R8 and 18R5 to bind to each FZD protein, titration analysis was conducted wherein the amount of antibody in the binding reaction was varied (FIG. 2).

[2] = target: T2, human FZD6 expressed on transfected HEK293 cells (human, UniProt O60353 19-706); assay: as above
T2 sequence: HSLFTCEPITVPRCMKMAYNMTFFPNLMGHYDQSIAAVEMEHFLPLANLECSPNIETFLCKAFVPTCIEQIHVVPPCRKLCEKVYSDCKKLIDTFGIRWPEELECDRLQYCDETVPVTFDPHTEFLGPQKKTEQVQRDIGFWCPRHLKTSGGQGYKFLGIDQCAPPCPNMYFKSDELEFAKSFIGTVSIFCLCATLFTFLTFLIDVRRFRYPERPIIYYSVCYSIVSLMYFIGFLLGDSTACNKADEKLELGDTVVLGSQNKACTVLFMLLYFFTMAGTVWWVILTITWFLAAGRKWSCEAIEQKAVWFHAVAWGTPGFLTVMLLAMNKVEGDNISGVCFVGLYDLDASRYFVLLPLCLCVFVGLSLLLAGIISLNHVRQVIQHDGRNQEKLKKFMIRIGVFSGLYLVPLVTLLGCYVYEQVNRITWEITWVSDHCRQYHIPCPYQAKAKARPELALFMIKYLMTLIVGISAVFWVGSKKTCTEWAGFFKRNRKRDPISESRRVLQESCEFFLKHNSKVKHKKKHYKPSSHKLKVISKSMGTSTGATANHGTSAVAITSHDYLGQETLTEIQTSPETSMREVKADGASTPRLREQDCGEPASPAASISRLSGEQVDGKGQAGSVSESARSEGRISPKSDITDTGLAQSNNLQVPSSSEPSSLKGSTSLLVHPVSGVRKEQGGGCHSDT
Method: as §1

[3] = target: T3, recombinant FZD1 Fc protein (Biacore) (Homo sapiens (Human), UniProt Q9UP38 70-321, limits assumed); assay: SPR, Biacore 2000; Fzd Fc immobilized on CM5 chip, IgG 100 to 0.78 nM in solution
T3 construct: also called Fzd Fc; not shown: Fc part, not described
T3 sequence (Q9UP38 70-321 limits assumed): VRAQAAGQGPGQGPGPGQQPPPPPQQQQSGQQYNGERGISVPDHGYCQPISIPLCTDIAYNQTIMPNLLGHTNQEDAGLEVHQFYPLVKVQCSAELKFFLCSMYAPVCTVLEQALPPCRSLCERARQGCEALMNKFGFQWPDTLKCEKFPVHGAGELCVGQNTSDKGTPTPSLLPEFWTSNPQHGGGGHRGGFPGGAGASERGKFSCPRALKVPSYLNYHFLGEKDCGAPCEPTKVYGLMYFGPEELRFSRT
Method: (§2) The KDs of 18R8 and 18R5 antibodies were determined using the Biacore 2000 system from Biacore Lifescience (GE Healthcare). Specifically, purified anti-Fzd7 antibodies were serially diluted in 2-fold increments from 100 to 0.78 nM in HBS-P (0.01 M HEPES pH 7.4, 0.15 M NaCl, 0.005% v/v Surfactant P20). Each dilution was tested against recombinant Fzd Fc proteins immobilized onto a CM5 Biacore chip. The association and dissociation rates were measured and KD values determined using the Biaevaluation software program (Table 5, below).

FZD5-Fc = target: T4, FZD5-Fc (Homo sapiens (Human), UniProt Q13467 27-233, limits assumed); assay: as above
T4 construct: also called recombinant FZD5 Fc protein; not shown: Fc part, not described
T4 sequence: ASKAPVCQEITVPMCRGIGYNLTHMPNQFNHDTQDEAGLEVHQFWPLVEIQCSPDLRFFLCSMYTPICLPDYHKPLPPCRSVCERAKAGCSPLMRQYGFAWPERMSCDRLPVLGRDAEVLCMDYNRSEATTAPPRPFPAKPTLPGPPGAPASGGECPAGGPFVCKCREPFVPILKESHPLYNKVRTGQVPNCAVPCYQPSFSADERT
Method: as §2

[4] = target: T5, recombinant FZD7 Fc protein (Biacore) (Homo sapiens (Human), UniProt O75084 33-255, limits assumed); assay: as above
T5 construct: also called Fzd Fc; not shown: Fc part, not described
Method: as §2

[5] = target: T6, recombinant FZD2 Fc protein (Biacore) (Homo sapiens (Human), UniProt Q14332 24-250, limits assumed); assay: as above
T6 construct: also called Fzd Fc; not shown: Fc part, not described
T6 sequence (Q14332 24-250 limits assumed): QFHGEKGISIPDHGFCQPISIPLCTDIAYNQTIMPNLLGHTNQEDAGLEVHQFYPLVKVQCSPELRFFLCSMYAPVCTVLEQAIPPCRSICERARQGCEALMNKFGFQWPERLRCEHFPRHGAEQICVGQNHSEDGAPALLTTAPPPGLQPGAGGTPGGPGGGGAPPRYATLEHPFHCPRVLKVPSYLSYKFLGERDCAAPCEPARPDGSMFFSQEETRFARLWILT
Method: as §2

binding result [1]: no binding (tested: 10 ug/ml) | binding result [2]: no binding (tested: 10 ug/ml) | Kd [3]: 15.6 nM | Kd (FZD5-Fc): 4.2 nM | Kd [4]: 5.2 nM | Kd [5]: 6.2 nM
B1: 18R8 IgG antibody (human IgG2, lambda) (antibody, V domains shown)
VH: EVQLVESGGGLVQPGGSLRLSCAASGFTFSHYTLSWVRQAPGKGLEWVSVISGDGSYTYYADSVKGRFTISSDNSKNTLYLQMNSLRAEDTAVYYCARNFIKYVFANWGQGTLVTVSS
VL: DIELTQPPSVSVAPGQTARISCSGDKLGKKYASWYQQKPGQAPVLVIYEKDNRPSGIPERFSGSNSGNTATLTISGTQAEDEADYYCSSFAGNSLEVFGGGTKLTVLG
notes: Expressed in CHO cells, protein A purified; also called 18R8 IgG2 antibody; anti-FZD antibody 18R8
